# T1: MBD1 MBD (Homo sapiens, UniProt Q9UIS9 1-77)
# T1 sequence: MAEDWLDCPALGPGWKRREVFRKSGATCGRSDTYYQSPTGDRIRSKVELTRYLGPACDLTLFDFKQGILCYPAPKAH
# B1: AmCGC (dsDNA)
# DNA 1: GCCAACGCTGGC
# DNA 2: GCCAGCGTTGGC
# modifications: 5mC at position 6 of both strands
# B2: AmCGT (mCG) (dsDNA)
# DNA 1: GCCAACGTTGGC
# DNA 2: GCCAACGTTGGC
# modifications: 5mC at position 6 of both strands
# B3: hmCG (dsDNA)
# DNA 1: GCCAGCGCTGGC
# DNA 2: GCCAGCGCTGGC
# modifications: 5hmC at position 6 of both strands
# B4: GmCGC (dsDNA)
# DNA 1: GCCAGCGCTGGC
# DNA 2: GCCAGCGCTGGC
# modifications: 5mC at position 6 of both strands
# B5: mCG/TG (dsDNA)
# DNA 1: GTCAACGTTACG
# DNA 2: CGTAATGTTGAC
# modifications: 5mC at position 6 of strand 1
# How the values were obtained:
# [1] = biological target: MBD3 MBD (crystallization) (Homo sapiens, UniProt O95983 1-71); assay: crystal structure
# Sequence of MBD3 MBD (crystallization) (O95983 1-71): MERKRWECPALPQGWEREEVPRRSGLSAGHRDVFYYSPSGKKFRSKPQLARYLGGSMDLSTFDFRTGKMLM
# MBD1 MBD = biological target: T1, MBD1 MBD; assay: ITC
# MBD4 MBD = MBD4 MBD (Homo sapiens, UniProt O95243 55-152); assay: ITC
# Sequence of MBD4 MBD (O95243 55-152): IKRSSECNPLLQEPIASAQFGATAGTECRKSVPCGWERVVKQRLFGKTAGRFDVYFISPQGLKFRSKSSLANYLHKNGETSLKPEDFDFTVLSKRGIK
# MBD2 MBD = MBD2 MBD (Homo sapiens, UniProt Q9UBB5 143-220); assay: ITC
# Sequence of MBD2 MBD (Q9UBB5 143-220): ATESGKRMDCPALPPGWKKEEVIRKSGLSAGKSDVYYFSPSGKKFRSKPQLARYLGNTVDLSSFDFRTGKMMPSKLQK
# MeCP2 MBD = MeCP2 MBD (Homo sapiens, UniProt P51608 80-164); assay: ITC
# Sequence of MeCP2 MBD (P51608 80-164): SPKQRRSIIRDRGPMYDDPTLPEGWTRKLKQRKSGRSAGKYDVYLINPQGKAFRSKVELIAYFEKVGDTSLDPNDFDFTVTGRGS
# MBD3 MBD = MBD3 MBD (Homo sapiens, UniProt O95983 1-71); assay: ITC
# Sequence of MBD3 MBD (O95983 1-71): as the sequence (O95983 1-71) above
# MBD2 MBD R188A = MBD2 MBD R188A (Homo sapiens, UniProt Q9UBB5 143-220, R188A); assay: ITC
# Sequence of MBD2 MBD R188A (Q9UBB5 143-220 R188A): as the sequence (Q9UBB5 143-220) above, with R46A counted along it
# MBD2 MBD R166A = MBD2 MBD R166A (Homo sapiens, UniProt Q9UBB5 143-220, R166A); assay: ITC
# Sequence of MBD2 MBD R166A (Q9UBB5 143-220 R166A): as the sequence (Q9UBB5 143-220) above, with R24A counted along it
binder,measurement,setting,value
B1,binding result,[1],binds
B2,Kd,MBD1 MBD,1000 ± 100 nM
same,Kd,MBD4 MBD,400 ± 100 nM
same,Kd,MBD2 MBD,900 ± 200 nM
same,Kd,MeCP2 MBD,1200 ± 200 nM
same,Kd,MBD3 MBD,5400 ± 1200 nM
B3,Kd,MBD2 MBD,9700 ± 2300 nM
same,Kd,MeCP2 MBD,32000 ± 4000 nM
B4,Kd,MBD2 MBD R188A,5600 ± 500 nM
same,binding result,MBD2 MBD R166A,no binding
same,Kd,MBD3 MBD,5200 ± 500 nM
B5,Kd,MBD1 MBD,2200 ± 300 nM
same,Kd,MBD4 MBD,1500 ± 300 nM
same,Kd,MBD2 MBD,1600 ± 200 nM
same,Kd,MeCP2 MBD,1200 ± 200 nM
same,Kd,MBD3 MBD,6500 ± 1200 nM

# From publication doi:10.1101/338061
